Data taken from article PMC7293203 (Chembiochem : a European journal of chemical biology, 2019).

How the values were obtained:
[1] = biological target: tryptophan synthase α-subunit TrpA from Zea mays, wild type (Zea mays); test: activity titration
[2] = biological target: the molecule itself; test: native MS

B1: tryptophan synthase β-subunit TrpB1 from Zea mays (enzyme)
chain: GRFGGKYVPETLMHALTELENAFHALATDDEFQKELDGILKDYVGRESPLYFAERLTEHYKRADGTGPLIYLKREDLNHRGAHKINNAVAQALLAKRLGKQRIIAETGAGQHGVATATVCARFGLQCIIYMGAQDMERQALNVFRMKLLGAEVRAVHSGTATLKDATSEAIRDWVTNVETTHYILGSVAGPHPYPMMVREFHKVIGKETRRQAMHKWGGKPDVLVACVGGGSNAMGLFHEFVEDQDVRLIGVEAAGHGVDTDKHAATLTKGQVGVLHGSMSYLLQDDDGQVIEPHSISAGLDYPGVGPEHSFLKDIGRAEYDSVTDQEALDAFKRVSRLEGIIPALETSHALAYLEKLCPTLPDGVRVVLNCSGRGDKDVHTASKYLDV
For B1, the Kd [1] was 500 nM and the “stoichiometry N” value [2] was 2.
